Reference: patent US20130109618

How the values were obtained:
[1] = tested on: Ac-Agp57-Tat(47-57)-NH2 (HIV-1?); test: EMSA; conditions: with 10 ug/mL poly(dI-dC); unit inferred, inferred nM from comparison with 67 ± 19
[2] = tested on: AgbTat (all six Arg replaced by Agb) (HIV-1?); test: EMSA; conditions: apparent; with 10 ug/mL poly(dI-dC); 50 mM Tris-HCl pH 7.4, 50 mM KCl
[3] = tested on: AghTat (all six Arg replaced by Agh) (HIV-1?); test: EMSA; conditions: apparent; with 10 ug/mL poly(dI-dC); 50 mM Tris-HCl pH 7.4, 50 mM KCl
[4] = tested on: ArgTat (Tat(47-57), Tat-Arg) (HIV-1?); test: EMSA
Tat-Cit49 (HIV-1?) [5] = test: EMSA; conditions: with 10 ug/mL poly(dI-dC), 25 C
Tat-Cit52 (HIV-1?) [6] = test: EMSA; conditions: with 10 ug/mL poly(dI-dC), 25 C
Tat-Cit53 (HIV-1?) [7] = test: EMSA; conditions: with 10 ug/mL poly(dI-dC), 25 C
Tat-Cit55 (HIV-1?) [8] = test: EMSA; conditions: with 10 ug/mL poly(dI-dC), 25 C
Tat-Cit56 (HIV-1?) [9] = test: EMSA; conditions: with 10 ug/mL poly(dI-dC), 25 C
Tat-Cit57 (HIV-1?) [10] = test: EMSA; conditions: with 10 ug/mL poly(dI-dC), 25 C
[11] = tested on: AgbTat (all six Arg replaced by Agb) (HIV-1?); test: FP; conditions: apparent; 1:1 fit; 50 mM Tris-HCl pH 7.4, 20 mM KCl, 0.02% Tween-20, room temperature
[12] = tested on: AghTat (all six Arg replaced by Agh) (HIV-1?); test: FP; conditions: apparent; 1:1 fit; 50 mM Tris-HCl pH 7.4, 20 mM KCl, 0.02% Tween-20, room temperature
[13] = tested on: ArgTat (Tat(47-57), Tat-Arg) (HIV-1?); test: FP; conditions: apparent; 1:1 fit; 50 mM Tris-HCl pH 7.4, 20 mM KCl, 0.02% Tween-20, room temperature, 25 nM RNA
Tat-Cit49 (HIV-1?) [14] = test: FP; conditions: 50 mM Tris-HCl pH 7.4, 20 mM KCl, 0.02% Tween-20, room temperature
Tat-Cit52 (HIV-1?) [15] = test: FP; conditions: 50 mM Tris-HCl pH 7.4, 20 mM KCl, 0.02% Tween-20, room temperature
Tat-Cit53 (HIV-1?) [16] = test: FP; conditions: 50 mM Tris-HCl pH 7.4, 20 mM KCl, 0.02% Tween-20, room temperature
Tat-Cit55 (HIV-1?) [17] = test: FP; conditions: 50 mM Tris-HCl pH 7.4, 20 mM KCl, 0.02% Tween-20, room temperature
Tat-Cit56 (HIV-1?) [18] = test: FP; conditions: 50 mM Tris-HCl pH 7.4, 20 mM KCl, 0.02% Tween-20, room temperature
Tat-Cit57 (HIV-1?) [19] = test: FP; conditions: 50 mM Tris-HCl pH 7.4, 20 mM KCl, 0.02% Tween-20, room temperature

HIV TAR RNA (F-TAR-RNA)
Kd [1]: 56 nM | Kd [2]: 31 nM | Kd [3]: 450 nM | Kd [4]: 67 nM | Kd (Tat-Cit49 (HIV-1?) [5]): 138 nM | Kd (Tat-Cit52 (HIV-1?) [6]): 235 nM | Kd (Tat-Cit53 (HIV-1?) [7]): 344 nM | Kd (Tat-Cit55 (HIV-1?) [8]): 279 nM | Kd (Tat-Cit56 (HIV-1?) [9]): 164 nM | Kd (Tat-Cit57 (HIV-1?) [10]): 146 nM | Kd [11]: 32 nM | Kd [12]: 36 nM | Kd [13]: 25 nM | Kd (Tat-Cit49 (HIV-1?) [14]): 94 nM | Kd (Tat-Cit52 (HIV-1?) [15]): 116 nM | Kd (Tat-Cit53 (HIV-1?) [16]): 102 nM | Kd (Tat-Cit55 (HIV-1?) [17]): 99 nM | Kd (Tat-Cit56 (HIV-1?) [18]): 55 nM | Kd (Tat-Cit57 (HIV-1?) [19]): 49 nM
